Experimental data taken from patent US20210221886A1.

Molecular target: human CD47 antigen (human) (UniProt Q08722)
Experiment: flow cytometry on human red blood cells at the maximal binding concentration; reference Hu5F9

Q: With anti-CD47 IgG4 AO-176 (antibody) as the substance, how does the percent reduction of RBC binding with respect to Hu5F9 read?
A: The percent reduction of RBC binding with respect to Hu5F9 was 80%.
